Test results taken from the supplement of paper PMC10567573.

B1: PDLIM4 (parent)
chain: FLDERLYCESHAKARVKPPEGYDV
B2: ATL3 (parent)
chain: FSFRYQQELEEEIKELYENFCKHN

Variants of: B1
Assay: protein stability index of a GFP-peptide fusion (GPS, HEK-293T) (PSI 1-6); higher = more stable
Details: c terminus: a fixed tail appended
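Note: lentivirally expressed fusions sorted by FACS into six bins by GFP to DsRed ratio, PSI derived from sequencing read proportions per bin multiplied by bin number.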

Variant | protein stability index
FLQERLYCESHAKARVKPPEGYDV [D3Q] | 1.53
FLRERLYCESHAKARVKPPEGYDV [D3R] | 2.32
FLNERLYCESHAKARVKPPEGYDV [D3N] | 1.21
FLVERLYCESHAKARVKPPEGYDV [D3V] | 2.5
FLCERLYCESHAKARVKPPEGYDV [D3C] | 3.79
FLHERLYCESHAKARVKPPEGYDV [D3H] | 2.39
FLPERLYCESHAKARVKPPEGYDV [D3P] | 2.64
FLMERLYCESHAKARVKPPEGYDV [D3M] | 1.48
FLSERLYCESHAKARVKPPEGYDV [D3S] | 1.03
FLIERLYCESHAKARVKPPEGYDV [D3I] | 1.94
FLGERLYCESHAKARVKPPEGYDV [D3G] | 1.92
FLLERLYCESHAKARVKPPEGYDV [D3L] | 2.27
FLAERLYCESHAKARVKPPEGYDV [D3A] | 2.14
FLKERLYCESHAKARVKPPEGYDV [D3K] | 2.49
FLTERLYCESHAKARVKPPEGYDV [D3T] | 1.31
FLDERLYAESHAKARVKPPEGYDV [C8A] | 1.53
FLDERLYDESHAKARVKPPEGYDV [C8D] | 3.78
FLDERLYEESHAKARVKPPEGYDV [C8E] | 3.52

Variants of: B2
Assay: as above
Details: c terminus: a fixed tail appended

Variant | protein stability index
FSFRYQQELEEEIKELYENFCWHN [K22W] | 1.35
FSFRYQQELEEEIKELYENFCHHN [K22H] | 2.04
FSFRYQQELEEEIKELYENFCPHN [K22P] | 1.97
FSFRYQQELEEEIKELYENFCIHN [K22I] | 2.23
FSFRYQQELEEEIKELYENFCLHN [K22L] | 2.77
FSFRYQQELEEEIKELYENFCYHN [K22Y] | 2.01
FSFRYQQELEEEIKELYENFCRHN [K22R] | 2.12
FSFRYQQELEEEIKELYENFCEHN [K22E] | 2.41
FSFRYQQELEEEIKELYENFCAHN [K22A] | 2.45
FSFRYQQELEEEIKELYENFCDHN [K22D] | 2.42
FSFRYQQELEEEIKELYENFCFHN [K22F] | 2.08
FSFRYQQELEEEIKELYENFCGHN [K22G] | 2.58
FSFRYQQELEEEIKELYENFCTHN [K22T] | 3.02
FSFRYQQELEEEIKELYENFCSHN [K22S] | 2.33
FSFRYQQELEEEIKELYENFCVHN [K22V] | 1.99
FSFRYQQELEEEIKELYENFCQHN [K22Q] | 2.93
FSFRYQQELEEEIKELYENFCCHN [K22C] | 2.06
FSFRYQQELEEEIKELYENFCNHN [K22N] | 2.54
FSFRYQQELEEEIKELYENFCMHN [K22M] | 2.24
FSFRYQQELEEEIKELYENFCKYN [H23Y] | 2.49
FSFRYQQELEEEIKELYENFCKGN [H23G] | 2.04
FSFRYQQELEEEIKELYENFCKRN [H23R] | 1.86
FSFRYQQELEEEIKELYENFCKTN [H23T] | 3.04
FSFRYQQELEEEIKELYENFCKMN [H23M] | 2.49
FSFRYQQELEEEIKELYENFCKKN [H23K] | 3.21
FSFRYQQELEEEIKELYENFCKWN [H23W] | 2.14

Variant | protein stability index
FSFRYQQELEEEIKELYENFCKLN [H23L] | 2.73
FSFRYQQELEEEIKELYENFCKSN [H23S] | 2.1
FSFRYQQELEEEIKELYENFCKFN [H23F] | 2.19
FSFRYQQELEEEIKELYENFCKIN [H23I] | 2.43
FSFRYQQELEEEIKELYENFCKCN [H23C] | 1.84
FSFRYQQELEEEIKELYENFCKAN [H23A] | 2.25
FSFRYQQELEEEIKELYENFCKPN [H23P] | 1.6
FSFRYQQELEEEIKELYENFCKQN [H23Q] | 2.75
FSFRYQQELEEEIKELYENFCKNN [H23N] | 2.3
FSFRYQQELEEEIKELYENFCKEN [H23E] | 2.63
FSFRYQQELEEEIKELYENFCKDN [H23D] | 2.12
FSFRYQQELEEEIKELYENFCKHF [N24F] | 3.38
FSFRYQQELEEEIKELYENFCKHM [N24M] | 2.49
FSFRYQQELEEEIKELYENFCKHD [N24D] | 2.49
FSFRYQQELEEEIKELYENFCKHI [N24I] | 2.82
FSFRYQQELEEEIKELYENFCKHC [N24C] | 2.77
FSFRYQQELEEEIKELYENFCKHA [N24A] | 2.37
FSFRYQQELEEEIKELYENFCKHL [N24L] | 2.64
FSFRYQQELEEEIKELYENFCKHV [N24V] | 3.5
FSFRYQQELEEEIKELYENFCKHY [N24Y] | 2.61
FSFRYQQELEEEIKELYENFCKHK [N24K] | 2.48
FSFRYQQELEEEIKELYENFCKHG [N24G] | 2.36
FSFRYQQELEEEIKELYENFCKHW [N24W] | 2.12
FSFRYQQELEEEIKELYENFCKHT [N24T] | 3.13
FSFRYQQELEEEIKELYENFCKHR [N24R] | 2.42
FSFRYQQELEEEIKELYENFCKHH [N24H] | 2.64

Variant | protein stability index
FSFRYQQELEEEIKELYENFCKHP [N24P] | 1.96
FSFRYQQELEEEIKELYENFCKHE [N24E] | 1.93
FSFRYQQELEEEIKELYENFCKHS [N24S] | 2.14
FSFRYQQELEEEIKELYENFTKHN [C21T] | 1.97
FSFRYQQELEEEIKELYENFIKHN [C21I] | 2.05
FSFRYQQELEEEIKELYENFFKHN [C21F] | 2.1
FSFRYQQELEEEIKELYENFRKHN [C21R] | 2.46
FSFRYQQELEEEIKELYENFSKHN [C21S] | 2.48
FSFRYQQELEEEIKELYENFNKHN [C21N] | 2.58
FSFRYQQELEEEIKELYENFEKHN [C21E] | 3.12
FSFRYQQELEEEIKELYENFAKHN [C21A] | 3.33
FSFRYQQELEEEIKELYENFGKHN [C21G] | 2.55
FSFRYQQELEEEIKELYENFYKHN [C21Y] | 1.77
FSFRYQQELEEEIKELYENFDKHN [C21D] | 3.33
FSFRYQQELEEEIKELYENFVKHN [C21V] | 2.62
FSFRYQQELEEEIKELYENFKKHN [C21K] | 2.66
FSFRYQQELEEEIKELYENFPKHN [C21P] | 2.11
FSFRYQQELEEEIKELYENFLKHN [C21L] | 2.13
FSFRYQQELEEEIKELYENFWKHN [C21W] | 2.31
FSFRYQQELEEEIKELYENFMKHN [C21M] | 2.32
FSFRYQQELEEEIKELYENFHKHN [C21H] | 2.18
FSFRYQQELEEEIKELYENFQKHN [C21Q] | 3.08
FSFRYQQELEEEIKELYENWCKHN [F20W] | 1.9
FSFRYQQELEEEIKELYENYCKHN [F20Y] | 2.38
